Test results published in patent US20210363269A1 (ALX ONCOLOGY, published 2021).

T1: high affinity SIRP-α D1 variant CV1-3
T1 chain: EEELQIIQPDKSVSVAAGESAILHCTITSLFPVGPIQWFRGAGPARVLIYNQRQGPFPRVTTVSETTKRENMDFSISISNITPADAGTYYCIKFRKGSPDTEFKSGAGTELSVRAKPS

T2: cynomolgus SIRP-α D1 domain (cyno1) (cynomolgus monkey, UniProt Q5TFQ8 30-148 (human entry), limits assumed)
T2 chain: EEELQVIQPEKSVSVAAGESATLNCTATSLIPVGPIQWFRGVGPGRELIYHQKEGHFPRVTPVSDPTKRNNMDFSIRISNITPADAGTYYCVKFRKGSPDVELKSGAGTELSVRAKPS

T3: cynomolgus SIRP-α D1 domain (cyno2) (cynomolgus monkey, UniProt Q5TFQ8 30-148 (human entry), limits assumed)
T3 chain: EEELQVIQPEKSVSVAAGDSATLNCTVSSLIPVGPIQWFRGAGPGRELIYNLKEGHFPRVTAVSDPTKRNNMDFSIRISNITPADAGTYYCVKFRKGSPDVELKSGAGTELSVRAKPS

T4: mouse 129 SIRP-α D1 domain (mouse (129 strain), UniProt P97797 32-150)
T4 construct: also called m129
T4 chain: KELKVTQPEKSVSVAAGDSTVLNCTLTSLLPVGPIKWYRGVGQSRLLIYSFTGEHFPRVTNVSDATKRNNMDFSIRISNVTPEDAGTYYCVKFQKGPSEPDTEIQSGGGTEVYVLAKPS

T5: NOD mouse SIRP-α D1 domain (mouse (NOD strain))
T5 chain: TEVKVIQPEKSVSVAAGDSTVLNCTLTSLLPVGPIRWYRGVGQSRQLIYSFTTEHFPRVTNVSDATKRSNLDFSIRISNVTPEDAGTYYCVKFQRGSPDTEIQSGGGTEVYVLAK

T6: C57BL/6 mouse SIRP-α D1 domain (mouse (C57BL/6 strain), UniProt P97797 32-148)
T6 sequence: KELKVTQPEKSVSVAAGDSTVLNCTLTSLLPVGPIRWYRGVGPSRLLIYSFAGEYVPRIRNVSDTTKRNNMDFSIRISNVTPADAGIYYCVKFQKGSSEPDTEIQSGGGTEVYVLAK


Key:
[1] = target: T1, high affinity SIRP-α D1 variant CV1-3; assay: SPR, Langmuir fit
In short: (§1)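 Dissociation rate constants (koff) were measured on a ProteOn XPR36 instrument by Langmuir model fitting. Antibody clones in scFv-Fc format were captured from pre-filtered culture media onto a GLC chip with about 4000 RU of amine-coupled anti-human IgG Fc. SIRP analytes ran in PBS pH 7.4 with 0.01% Tween-20 at 25° C, and the model used was 1:1, applied to data double-referenced against interspot and buffer-blank responses.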

[2] = target: T7, human SIRPγ isoform 1 (human, UniProt Q9P1W8 29-147); assay: SPR, Langmuir fit
T7 construct: also called SIRPg; sirpg
In short: as §1

[3] = target: T8, human SIRP-α v1 D1 domain (human, UniProt P78324 31-149); assay: SPR, Langmuir fit
T8 construct: also called human v1
In short: as §1

[4] = target: T9, human SIRP-α v2 D1 domain (human); assay: SPR, Langmuir fit
T9 construct: also called human v2
In short: as §1

[5] = target: T2, cynomolgus SIRP-α D1 domain (cyno1); assay: SPR, Langmuir fit
In short: as §1

[6] = target: T3, cynomolgus SIRP-α D1 domain (cyno2); assay: SPR, Langmuir fit
In short: as §1

[7] = target: T4, mouse 129 SIRP-α D1 domain; assay: SPR, Langmuir fit
In short: as §1

[8] = target: T5, NOD mouse SIRP-α D1 domain; assay: SPR, Langmuir fit
In short: as §1

[9] = target: T6, C57BL/6 mouse SIRP-α D1 domain; assay: SPR, Langmuir fit
In short: as §1

[10] = target: T10, human SIRPβ isoform 1 (human, UniProt O00241 30-148); assay: SPR, Langmuir fit
T10 construct: also called SIRPb; sirpb1
In short: as §1

[11] = target: T11, human SIRP-α v1 (human, UniProt P78324 31-149); assay: SPR
T11 construct: also called Human v1; Human V1
In short: (§2)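 KD values were derived as kd/ka from apparent rate constants obtained by globally fitting double-referenced data to a simple Langmuir model. The data came from a ProteOn XPR36 biosensor run at 25° C in PBS pH 7.4 with 0.01% Tween-20. There, purified antibodies sat on a GLC chip by amine coupling or on an NLC chip by biotinylated Protein A capture, and SIRP analytes were injected in one-shot kinetic mode at nominal concentrations set from A280 absorbance.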

[12] = target: T12, human SIRP-α v2 (human); assay: SPR
T12 construct: also called Human v2; Human V2
In short: as §2

T10 sequence (O00241 30-148 limits assumed): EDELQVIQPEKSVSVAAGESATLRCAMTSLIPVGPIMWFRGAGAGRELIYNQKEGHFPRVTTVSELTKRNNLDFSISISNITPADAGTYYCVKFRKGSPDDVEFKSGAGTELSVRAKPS
T8 sequence (P78324 31-149 limits assumed): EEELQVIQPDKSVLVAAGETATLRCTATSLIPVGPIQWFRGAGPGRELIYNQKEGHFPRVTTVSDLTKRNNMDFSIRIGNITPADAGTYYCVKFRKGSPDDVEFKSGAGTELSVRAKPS
T9 sequence (chain, as listed by the source limits assumed): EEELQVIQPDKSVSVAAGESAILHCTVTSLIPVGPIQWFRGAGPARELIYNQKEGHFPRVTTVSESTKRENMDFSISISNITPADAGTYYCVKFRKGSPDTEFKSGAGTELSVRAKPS
T7 sequence (Q9P1W8 29-147 limits assumed): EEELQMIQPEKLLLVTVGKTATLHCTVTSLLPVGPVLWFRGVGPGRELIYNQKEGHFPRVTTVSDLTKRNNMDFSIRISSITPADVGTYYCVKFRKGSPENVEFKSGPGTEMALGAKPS
T11 sequence (P78324 31-149 limits assumed): as the sequence (P78324 31-149 limits assumed) above

| Binder | koff [1] [s⁻¹] | koff [2] [s⁻¹] | koff [3] [s⁻¹] | koff [4] [s⁻¹] | koff [5] [s⁻¹] | koff [6] [s⁻¹] | koff [7] [s⁻¹] | koff [8] [s⁻¹] | koff [9] [s⁻¹] | koff [10] [s⁻¹] | Kd [11] [pM] | Kd [12] [pM] |
| --- | --- | --- | --- | --- | --- | --- | --- | --- | --- | --- | --- | --- |
| S201 (scFv, V domains shown) VH: DVQLVESGGAVVRPGETLRLSCTASGFTFSSYAMSWVRQAPGKGLEWVSGISASGSDTYYADSVKGRSTISRDNSKNTLYLRMSSLTAEDTAVYYCARETWNHLFDYWGLGTLVTVSS VL: ALTQPASVSANPGETVKITCSGGGTSSYYGWYQQKSPGSAPVTLIHSDDKRPSDIPSRFSGSASGSTATLTITGVQVEDEAVYYCGGYDYTTYVNTFGAGTTLTVL | 8.32e-05 | 0.000185 | 3.46e-05 | 4.27e-05 | 0.000636 | 0.000522 | 0.000818 | 0.00215 | 0.00111 | 0.0041 |  |  |
| S206 (scFv, V domains shown) VH: DVQLVESGGAVVRPGETLRLSCTASGFTFSSYAMSWVRQAPGKGLEWVSGISASGSDTYYADSVKGRSTISRDNSKNTLYLRMSSLTAEDTAVYYCARETWNHLFDYWGLGTLVTLSS VL: ALTQPASVSANPGETVKITCSGGGTSSYYGWYQQKSPGSAPVTLIHSDDKRPSDIPSRFSGSASGSTATLTITGVQAEDEAVYYCGGYDYTTYVNTFGAGTTLTVL | 8.22e-05 | 0.000192 | 3.5e-05 | 3.6e-05 | 0.000624 | 0.000518 | 0.000901 | 0.00223 | 0.00157 | 0.00437 |  |  |
| S22 (scFv, V domains shown, also called clone 22) VH: DVQLVESGGGVVRPGESLRLSCAASGFTFSSYAMSWVRQAPGKGLEWLAGISAGGSDTYYIDSVKGRFTISRRQFQEQSLSPNEPALTAEDTAVYYCARETWNHLFDYWGLGTLVTVSS VL: ALTQPASVSANPGETVKITCSGGDYYSTYYGWYQQKSPGSAPVTVIHSDDKRPSDIPSRFSGSASGSAATLTIAGVRVEDEAVYFCGAYDGRTYINTFGAGTTLTVL | 0.000135 | 0.000108 | 0.000121 | 0.000146 | 0.000177 | 0.000177 | 0.000153 | 0.000583 | 0.000736 | 0.000138 |  |  |
| S25 (scFv, V domains shown, also called clone 25; scFv-Fc form of AB25) VH: DVQLVESGGGVVRPGESLRLSCEASGFTFSSNAMSWVRQAPGKGLEWVAGISSGSDTYYGDSVKGRLTISRDNSKNILYLQMNSLTAEDTAVYYCARETWNHLFDYWGLGTLVTVSS VL: ALTQPASVSANPGETVEITCSGGSYSSYYYAWYQQKSPGSAPVTLIYSDDKRPSNIPSRFSGSASGSTATLTITGVRAEDEAVYFCGGYDQSSYTNPFGAGTTLTVL | 0.00014 | 0.000141 | 0.000112 | 0.000209 | 0.000219 | 0.000212 | 0.000133 | 0.000779 | 0.00029 | 0.000171 |  |  |
| S28 (scFv, V domains shown, also called clone 28) VH: DVQLVESGGGVVRPGESLRLSCAASGFSFSSNAMSWVRQAPGKGLEWVAGISASGDTYYSGSMKGRFTISRDNSKNTLYLQMNSLTAEDTAVYYCARETWNHLFDYWGLGTLVTVSS VL: ALTQPASVSANPGETVKITCSGGSDSYYYGWHQQKSPGSAPVTVIYSDDQRPPDIPSRFSGSASGSTTTLTITGVRAEDEAVYYCGGYDYSTYTNTFGAGTTLTVL | 6.59e-05 | 3.27e-05 | 2.11e-05 | 1.47e-05 | 0.000115 | 0.000132 | 0.000306 | 0.000616 | 0.00186 | 6.29e-05 |  |  |
| antibody 73 (antibody, V domains shown, also called S73) VH: DVQLVESGGGVVRPGESLRLSCEASGFTFSSNAMSWARQAPGKGLEWVAGISSGSDTYYGDSVKGRLTISRDNSKNILYLQMNSLTAEDTAVYYCARETWNHLFDYWGLGTLVTVSS VL: ALTQPASVSANPGETVKITCSGGIYSSYYYAWYQQKSPGSAPVTLIYSDDKRPSNIPSRFSGSASGSTATLTITGVRAEDEAVYFCGGYDQSSYTNPFGAGTTLTVL |  |  |  |  |  |  |  |  |  |  | < 1 | < 1 |
| S73 (scFv, V domains shown, also called clone 73) VH: DVQLVESGGGVVRPGESLRLSCEASGFTFSSNAMSWARQAPGKGLEWVAGISSGSDTYYGDSVKGRLTISRDNSKNILYLQMNSLTAEDTAVYYCARETWNHLFDYWGLGTLVTVSS VL: ALTQPASVSANPGETVKITCSGGIYSSYYYAWYQQKSPGSAPVTLIYSDDKRPSNIPSRFSGSASGSTATLTITGVRAEDEAVYFCGGYDQSSYTNPFGAGTTLTVL | 5.28e-05 | 7.3e-05 | 1.9e-05 | 7.49e-05 | 0.000127 | 0.000119 | 0.000164 | 0.00148 | 0.000373 | 0.000108 |  |  |
| S3 (scFv, V domains shown, also called clone 3; scFv-Fc form of AB3) VH: AVTLDESGGGLQTPGGALSLVCKASGFIFSDYGMNWVRQAPGKGLEFVAQITSGSRTYYGAAVKGRATISRDNRQSTVKLQLNNLRAEDTGIYFCARDFGSGVGSIDAWGNGTEVIVSS VL: ALTQPASVSANLGGTVKITCSGSRGRYGWYQQRSPGSAPVTVIYRDNQRPSNIPSRFSSSTSGSTSTLTITGVQADDESVYFCGSYDGSIDIFGAGTTLTVL | 0.000394 | 0.000162 | 0.00041 | 0.000276 | 0.00218 | 0.00174 | 0.000655 | 0.00119 | 0.00197 | 0.00192 |  |  |
| S21 (scFv, V domains shown, also called clone 21; scFv-Fc form of AB21) VH: DVQLVESGGGVVRPGESLRLSCAASGFTFSSNAMSWVRQAPGKGLEWLAGISAGGSDTYYPASVKGRFTISRDNSKNTLYLQMNTLTAEDTAVYYCARETWNHLFDYWGLGTLVTVSS VL: ALTQPASVSANPGETVKIACSGGDYYSYYYGWYQQKAPGSALVTVIYSDDKRPSDIPSRFSGSASGSTATLTITGVRAEDEAVYYCGGYDYSTYANAFGAGTTLTVL | 0.000195 | 0.000184 | 0.00018 | 0.000207 | 0.000233 | 0.000252 | 0.000281 | 0.00264 | 0.000806 | 0.00019 |  |  |
| antibody 16 (antibody, V domains shown, also called S16) VH: DVQLVESGGGVVRPGESLRLSCAVSGFRFSSYAMSWVRQAPGKGLEWVSGISSGGDTYYVDSVKGRFTISRDNSKNTLYLQVNSLTAEDTAIYYCARETWNHLFDYWGLGTLVTVSS VL: ALTQPASVSANLGETVKITCSGGDSSSHYYGWYQQKSPGSAPVTVIYSDDERPSDIPSRFSGSASGSTATLTITGVRVEDEAIYYCGAYDGSTYANTFGAGTTLTVL |  |  |  |  |  |  |  |  |  |  | < 1 | < 1 |
